Experimental data reported in patent US7189519B2, “Bead-based detection of ligand-GPCR-G protein complexes” (STC.UNM, priority 1998, dated 2007).

target: T1, FPR-αi2 (R-α) fusion protein (UniProt P04897+P21462); assay: RGS activity assay on beads (FPR-αi2, fluorescent ligand, GTP, Gβγ beads); assay type: biochemical
T1 construct: expressed in transfected cells; U937 stated only for FPR
Protocol: FPR-αi2 (R-α) was used in the standard assembly assay with fluorescent ligand (see FIG. 3, complex C), and with the amounts of GTP and RGS shown in FIG. 7, using beads coated with Gβγ. Bead fluorescence was measured as previously described.
Standard LRG Assembly Assay. The standard 10 μl assay consisted of 2 μl of water or 10^−4M GTPγS, 6 μl of soluble receptor preparation with or without ligand, and 2 μl of beads prepared as above, with 0.7 pmol G protein used per assay, and an unknown fraction left on the beads in the proper orientation. For FPR and R-αi2 assemblies, L^F (fMLFK-FITC) was added in excess of receptor to ensure that essentially all the receptor was bound. For FPR-GFP assembly, 10^−6 M L (fMLFFGGK) was added to the receptor preparation to ensure that essentially all the receptor was bound. Each mixture was mixed by pipetting to ensure a uniform starting suspension of the beads in 96 V-well plates (Costar), and then mixed at low speed on a vortex mixer at 7° for two hours. The 10 μl assays were individually brought to 200 μl with 0.1% dodecyl maltoside in buffer A in 12×75 mm tubes for flow cytometric measurement of fluorescence of the beads. LRG assembly was defined as the difference between fluorescence without GTPγS and that with GTPγS. All determinations were done in duplicate.
RGS Activity Affects LR-αG Assemblies on Beads. As a second mechanistic problem, the role of GTP and RGS activity in regulating the assembly of βγ subunits with the receptor-Giα fusion protein was examined (FIG. 7; see also FIGS. 3, complex C and FIG. 4B). […] The data were consistent with the idea that RGS, by enhancing the cleavage of GTP, affected the GTP dose-response for the formation of the bead-based complex. The shift in the dose-response was consistent with the consumption of 10 μM or more GTP in 10 μl over 2 hours in the presence of R-α, RGS, and L. Calculating that 24 nM R-α (the total added) consumed 10 μM GTP equally in the first half hour, leaving 60 minutes for assembly on the bead, the turnover number was ˜14 min^−1 for the receptor-Giα fusion protein at 7° C.; if rates double for every 10° C. increase, this would imply about 110 min^−1 at 37° C. Calculating consumption over the entire time yields ˜5 and 40 min^−1, respectively.
The nucleotide sensitivity of the assembly of R-αi2 with βγ allowed the activity and specificity of RGS to be examined. […] This assembly format therefore has the potential for discriminating RGS antagonists. Elsewhere it is described how GTP increases access of soluble assemblies of R-αi2 to anti-αi2 antibody, consistent with the idea of Ay binding and release (Shi M, et al., submitted).

T1 sequence (P21462+P04897 fused): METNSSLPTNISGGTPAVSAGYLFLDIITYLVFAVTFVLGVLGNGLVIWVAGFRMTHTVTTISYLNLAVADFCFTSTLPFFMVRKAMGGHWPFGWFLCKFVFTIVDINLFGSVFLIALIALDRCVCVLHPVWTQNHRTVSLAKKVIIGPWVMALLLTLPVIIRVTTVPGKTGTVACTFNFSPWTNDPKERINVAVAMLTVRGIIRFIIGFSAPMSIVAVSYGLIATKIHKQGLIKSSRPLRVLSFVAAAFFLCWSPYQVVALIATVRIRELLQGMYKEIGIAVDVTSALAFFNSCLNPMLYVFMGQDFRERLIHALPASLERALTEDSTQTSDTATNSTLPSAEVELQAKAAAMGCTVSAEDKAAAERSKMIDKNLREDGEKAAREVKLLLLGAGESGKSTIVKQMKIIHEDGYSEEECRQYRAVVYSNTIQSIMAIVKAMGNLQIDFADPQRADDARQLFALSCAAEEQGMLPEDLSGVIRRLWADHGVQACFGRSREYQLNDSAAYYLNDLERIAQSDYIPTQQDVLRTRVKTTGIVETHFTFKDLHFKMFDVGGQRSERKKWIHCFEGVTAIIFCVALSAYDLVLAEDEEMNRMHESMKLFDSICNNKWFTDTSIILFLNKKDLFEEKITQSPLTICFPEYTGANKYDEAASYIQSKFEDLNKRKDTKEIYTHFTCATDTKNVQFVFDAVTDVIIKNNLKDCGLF

GTP consumption in the presence of LR-α | Molecule
appeared to consume GTP | RGS8: regulator of G protein signaling protein (protein, UniProt P57771 1-180, looked up) Regulator of G-protein …: MAALLMPRRNKGMRTRLGCLSHKSDSCSDFTAILPDKPNRALKRLSTEEATRWADSFDVLLSHKYGVAAFRAFLKTEFSEENLEFWLACEEFKKTRSTAKLVSKAHRIFEEFVDVQAPREVNIDFQTREATRKNLQEPSLTCFDQAQGKVHSLMEKDSYPRFLRSKMYLDLLSQSQRRLS
appeared to consume GTP | RGS7: regulator of G protein signaling protein (protein, UniProt P49802 1-495, looked up) Regulator of G-protein …: MAQGNNYGQTSNGVADESPNMLVYRKMEDVIARMQDEKNGIPIRTVKSFLSKIPSVFSGSDIVQWLIKNLTIEDPVEALHLGTLMAAHGYFFPISDHVLTLKDDGTFYRFQTPYFWPSNCWEPENTDYAVYLCKRTMQNKARLELADYEAESLARLQRAFARKWEFIFMQAEAQAKVDKKRDKIERKILDSQERAFWDVHRPVPGCVNTTEVDIKKSSRMRNPHKTRKSVYGLQNDIRSHSPTHTPTPETKPPTEDELQQQIKYWQIQLDRHRLKMSKVADSLLSYTEQYLEYDPFLLPPDPSNPWLSDDTTFWELEASKEPSQQRVKRWGFGMDEALKDPVGREQFLKFLESEFSSENLRFWLAVEDLKKRPIKEVPSRVQEIWQEFLAPGAPSAINLDSKSYDKTTQNVKEPGRYTFEDAQEHIYKLMKSDSYPRFIRSSAYQELLQAKKKSGNSMDRRTSFEKFAQNVGRNIPIFPCHKNCTPTLRASTNLL
did not | RGS2: regulator of G protein signaling protein (protein, UniProt P41220 1-211, looked up) Regulator of G-protein …: MQSAMFLAVQHDCRPMDKSAGSGHKSEEKREKMKRTLLKDWKTRLSYFLQNSSTPGKPKTGKKSKQQAFIKPSPEEAQLWSEAFDELLASKYGLAAFRAFLKSEFCEENIEFWLACEDFKKTKSPQKLSSKARKIYTDFIEKEAPKEINIDFQTKTLIAQNIQEATSGCFTTAQKRVYSLMENNSYPRFLESEFYQDLCKKPQITTEPHAT
appeared to consume GTP | RGS4: regulator of G protein signaling protein (protein, UniProt P49798 1-205, looked up) Regulator of G-protein …: MCKGLAGLPASCLRSAKDMKHRLGFLLQKSDSCEHNSSHNKKDKVVICQRVSQEEVKKWAESLENLISHECGLAAFKAFLKSEYSEENIDFWISCEEYKKIKSPSKLSPKAKKIYNEFISVQATKEVNLDSCTREETSRNMLEPTITCFDEAQKKIFNLMEKDSYRRFLKSRFYLDLVNPSSCGAEKQKGAKSSADCASLVPQCA
